Where a chain is given by its changes, count along the chain named.
B1: Fab 8708 (Fab DL06 AM SR02) (Fab)
heavy: EVQLVESGGGLVQPGGSLRLSCAASGFNISSSSIHWVRQAPGKGLEWVAYISSYYSSTYYADSVKGRFTISADTSKNTAYLQMNSLRAEDTAVYYCARTYCPPLMRYNPTTYQMDVNPEAQYSFGATCGWAMDYWGQGTLVTVSSASTKGPSVFPLAPSSKSTSGGTAALGCLVKDYFPEPVTVSWNSGALTSGVHTFPAVLQSSGLYSLSSVVTVPSSSLGTQTYICNVNHKPSNTKVDKKVEPKSCDKTHT
light: DIQMTQSPSSLSASVGDRVTITCRASQSVSSAVAWYQQKPGKAPKLLIYSASSLYSGVPSRFSGSRSGTDFTLTISSLQPEDFATYYCQQWSYYPITFGQGTKVEIKRTVAAPSVFIFPPSDSQLKSGTASVVCLLNNFYPREAKVQWKVDNALQSGNSQESVTEQDSKDSTYSLSSTLTLSKADYEKHKVYACEVTHQGLSSPVTKSFNRGECGGSDYKDDDDK
notes: Purified Fab in most assays; also called DL06 SR02; Fab DL06 SR02
B2: Fab DL06 AM Clone 24 (Fab)
heavy: EVQLVESGGGLVQPGGSLRLSCAASGFNISSSSIHWVRQAPGKGLEWVAYISSYYSSTYYADSVKGRFTISADTSKNTAYLQMNSLRAEDTAVYYCARTFCPPLMLFNPTTFQLEINAEAKYSFASTCGWAMDYWGQGTLVTVSSASTKGPSVFPLAPSSKSTSGGTAALGCLVKDYFPEPVTVSWNSGALTSGVHTFPAVLQSSGLYSLSSVVTVPSSSLGTQTYICNVNHKPSNTKVDKKVEPKSCDKTHT
light: B1 light
notes: Purified Fab
B3: Fab DL06 AM Clone 23 (Fab)
heavy: B2 heavy with L104I, P109A, T111S, Q113E, E115D, N117D, Y122F
light: B1 light
notes: Purified Fab
B4: Recombinant EGF ligand (ligand, UniProt P01133 971-1023, looked up)
chain: NSDSECPLSHDGYCLHDGVCMYIEALDKYACNCVVGYIGERCQYRDLKWWELR
modifications: biotinylated with the N-hydroxysuccinimide ester of biotin in the ligand binding ELISA
notes: also called biotinylated EGF
B5: Fab 8709 (Fab H) (Fab)
heavy: EVQLVESGGGLVQPGGSLRLSCAASGFNLYSSSMHWVRQAPGKGLEWVASIYPYSGYTYYADSVKGRFTISADTSKNTAYLQMNSLRAEDTAVYYCARYPFGVSAYYAMDYWGQGTLVTVSSASTKGPSVFPLAPSSKSTSGGTAALGCLVKDYFPEPVTVSWNSGALTSGVHTFPAVLQSSGLYSLSSVVTVPSSSLGTQTYICNVNHKPSNTKVDKKVEPKSCDKTHT
light: DIQMTQSPSSLSASVGDRVTITCRASQSVSSAVAWYQQKPGKAPKLLIYSASSLYSGVPSRFSGSRSGTDFTLTISSLQPEDFATYYCQQSYWLITFGQGTKVEIKRTVAAPSVFIFPPSDSQLKSGTASVVCLLNNFYPREAKVQWKVDNALQSGNSQESVTEQDSKDSTYSLSSTLTLSKADYEKHKVYACEVTHQGLSSPVTKSFNRGECGGSDYKDDDDK
notes: From library F. Purified Fab in most assays

Legend:
[1] = target: T1, EGFR fragment D2-D3-D4 on HEK293F cells (UniProt P00533 190-645, limits assumed); assay: flow cytometry heat map of relative binding, 293F cells expressing EGFR EC domains
T1 construct: domain: D2-D3-D4

[2] = target: T2, EGFR fragment D3-D4 on HEK293F cells (UniProt P00533 334-645, limits assumed); assay: as above
T2 construct: domain: D3-D4

[3] = target: T3, Fc-tagged extracellular domain (ECD) of the recombinant human EGFR (rhEGFR) (human, UniProt P00533 25-645); assay: biolayer interferometry, Fab immobilized, rhEGFR in solution, 1:1 global fit
T3 construct: extracellular domain; also called rhEGFR-ECD; rhEGFR-ECD-Fc; not shown: Fc tag of the bought protein (R&D 344-ER)

[4] = target: T3, Fc-tagged extracellular domain (ECD) of …; assay: competitive phage ELISA with soluble rhEGFR as competitor, phage-displayed Fab; affinity-matured clone Fab 8708
[5] = target: T4, EGFR-DM (Y251A/R285S) on HEK293F cells (UniProt P00533 25-1210); assay: flow cytometry on HEK293F cells transiently expressing EGFR-DM
T4 construct: whole, on cells; not shown: C-terminal GFP of the parent EGFR-GFP construct

[6] = target: T5, EGFR-vIII on HEK293F cells (UniProt P00533 25-1210); assay: flow cytometry, HEK293F cells transiently expressing EGFR-vIII against cells expressing GFP
T5 construct: whole, on cells

[7] = target: T6, EGFR-D28 on HEK293F cells (UniProt P00533 25-1210); assay: flow cytometry dose response on transfected HEK293F cells
T6 construct: whole, on cells; also called EGFR-28; not shown: C-terminal GFP of the parent EGFR-GFP construct

[8] = target: T4, EGFR-DM (Y251A/R285S) on HEK293F cells; assay: as above
[9] = target: T3, Fc-tagged extracellular domain (ECD) of …; assay: competitive phage ELISA with soluble rhEGFR as competitor, phage-displayed Fab
[10] = target: T7, full-length EGFR with a C-terminal GFP fusion (EGFR-GFP) on HEK293F cells (UniProt P00533 25-1210); assay: flow cytometry on HEK293F cells transiently expressing EGFR
T7 construct: whole, on cells; also called EGFR (HEK293F transfected); not shown: C-terminal GFP fusion

[11] = target: T8, cell-surface EGFR (endogenous on A431, MDA-MB-231 and other cancer cell lines); pBABE-EGFR transfected 293T … (UniProt P00533 25-1210, limits assumed); assay: flow cytometry dose response on A431 cells, without EGF
T8 construct: whole, on cells; Untagged EGFR on cells; also called endogenous cell-surface EGFR; EGFR1

[12] = target: T6, EGFR-D28 on HEK293F cells; assay: flow cytometry on HEK293F cells transiently expressing EGFR-D28
[13] = target: T7, full-length EGFR with a C-terminal GFP …; assay: flow cytometry dose response on EGFR-293F cells
[14] = target: T9, Fc-tagged ECD of ErbB3 (R&D 348-RB) (human, UniProt P21860 20-643); assay: ELISA on immobilized Fc-tagged ErbB ECDs
T9 construct: extracellular domain; also called ErbB family member; not shown: Fc tag of the bought protein

[15] = target: T10, Fc-tagged ECD of ErbB4 (ErbB family member, R&D 1131-ER) (human, UniProt Q15303 26-651); assay: ELISA on immobilized Fc-tagged ErbB ECDs
T10 construct: extracellular domain; not shown: Fc tag of the bought protein
T10 sequence (looked up): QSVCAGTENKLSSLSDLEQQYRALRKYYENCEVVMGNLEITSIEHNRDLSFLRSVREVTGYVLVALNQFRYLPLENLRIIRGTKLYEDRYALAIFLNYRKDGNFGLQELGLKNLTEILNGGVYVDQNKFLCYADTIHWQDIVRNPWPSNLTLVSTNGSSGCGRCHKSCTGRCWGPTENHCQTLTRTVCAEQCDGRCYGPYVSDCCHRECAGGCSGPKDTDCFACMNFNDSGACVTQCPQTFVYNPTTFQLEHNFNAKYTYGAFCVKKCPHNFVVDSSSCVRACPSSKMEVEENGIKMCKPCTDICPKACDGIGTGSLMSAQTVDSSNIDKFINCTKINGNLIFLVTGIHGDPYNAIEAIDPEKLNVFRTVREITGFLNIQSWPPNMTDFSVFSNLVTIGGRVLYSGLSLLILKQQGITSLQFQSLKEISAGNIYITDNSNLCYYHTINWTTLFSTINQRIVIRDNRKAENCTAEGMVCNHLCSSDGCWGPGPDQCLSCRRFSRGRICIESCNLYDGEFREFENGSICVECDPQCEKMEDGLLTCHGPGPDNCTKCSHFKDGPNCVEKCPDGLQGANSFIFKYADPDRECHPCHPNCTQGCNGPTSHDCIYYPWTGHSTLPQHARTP

[16] = target: T11, Fc-tagged ECD of ErbB2 (ErbB family member, R&D 1129-ER) (human, UniProt P04626 23-652); assay: ELISA on immobilized Fc-tagged ErbB ECDs
T11 construct: extracellular domain; not shown: Fc tag of the bought protein

[17] = target: T3, Fc-tagged extracellular domain (ECD) of …; assay: multi-point competitive ELISA: soluble EGFR competes with immobilized EGFR for Clone 24
[18] = target: T3, Fc-tagged extracellular domain (ECD) of …; assay: multi-point competitive ELISA: soluble EGFR competes with immobilized EGFR for Clone 23
[19] = target: T3, Fc-tagged extracellular domain (ECD) of …; assay: ELISA: biotinylated EGF on immobilized EGFR, with or without pre-incubation with unlabeled EGF
[20] = target: T3, Fc-tagged extracellular domain (ECD) of …; assay: biolayer interferometry, Fab immobilized, rhEGFR-ECD-Fc in solution, 1:1 model
[21] = target: T8, cell-surface EGFR (endogenous on A431, …); assay: flow cytometry dose response on A431 cells after incubation with 10 nM EGF

Binder | binding result [1] | binding result [2] | Kd [3] | koff [3] | kon [3] | EC50 [5] | binding result [6] | fold change of EC50 against EGFR [7] | fold change of EC50 against EGFR [8] | EC50 [10] | EC50 (read off the curve) [11] | EC50 [12] | EC50 (read off the curve) [13] | binding result [14] | binding result [15] | binding result [16] | also measured
B1 | no binding | no binding | 6.8 nM | 5.6e-05 s⁻¹ | 7000 M⁻¹ s⁻¹ | 23 nM | no binding (tested: 200 nM) | < 3 fold | < 3 fold | 8.2 nM | ~6 nM | 21 nM | ~6 nM | no binding | no binding | no binding | IC50 [4]: ~30 nM; fold enhancement in affinity against parent Fab DL06 [9]: 7 fold
B2 | – | – | – | – | – | – | – | – | – | – | – | – | – | – | – | – | binding result [17]: binds
B3 | – | – | – | – | – | – | – | – | – | – | – | – | – | – | – | – | binding result [18]: binds
B4 | – | – | – | – | – | – | – | – | – | – | – | – | – | – | – | – | binding result [19]: binds
B5 | no binding | no binding | 1.4 nM | 0.00017 s⁻¹ | 130000 M⁻¹ s⁻¹ | 1.4 nM | no binding (tested: 200 nM) | < 3 fold | < 3 fold | 0.6 nM | ~0.6 nM | 1.4 nM | ~0.6 nM | no binding | no binding | no binding | fold faster off-rate than Fab 8708 [20]: 3 fold; fold faster on-rate than Fab 8708 [20]: 18 fold; EC50 (read off the curve) [21]: ~3 nM

Source: patent US20200087405A1 (UNIVERSITY OF SASKATCHEWAN, published 2020)
